From PMC6804253, “Predicting and Experimentally Validating Hot-Spot Residues at Protein–Protein Interfaces” (ACS Chemical Biology, 2019)

Assays:
[1] = test system: PPIs of the SKEMPI data set (by PDBID); test: SKEMPI experimental ΔΔG, single mutations to alanine; assay type: binding; settings: class of the SKEMPI experimental ΔΔG
[2] = test system: PPIs of the SKEMPI data set (by PDBID); settings: single mutation to alanine, sheet sortedByGroup, r_group FAMILYVW; ref SKEMPI; cited from earlier work

Molecule | sk_class [1] | sk_ddG_kJ (SKEMPI experimental ΔΔG) [2] [kJ]
1A4Y YA434A (protein, UniProt P13489 2-461, looked up, variant Y434A) Ribonuclease inhibitor: SLDIQSLDIQCEELSDARWAELLPLLQQCQVVRLDDCGLTEARCKDISSALRVNPALAELNLRSNELGDVGVHCVLQGLQTPSCKIQKLSLQNCCLTGAGCGVLSSTLRTLPTLQELHLSDNLLGDAGLQLLCEGLLDPQCRLEKLQLEYCSLSAASCEPLASVLRAKPDFKELTVSNNDINEAGVRVLCQGLKDSPCQLEALKLESCGVTSDNCRDLCGIVASKASLRELALGSNKLGDVGMAELCPGLLHPSSRLRTLWIWECGITAKGCGDLCRVLRAKESLKELSLAGNELGDEGARLLCETLLEPGCQLESLWVKSCSFTAACCSHFSSVLAQNRFLLELQISNNRLEDAGVRELCQGLGQPGSVLRVLWLADCDVSDSSCSSLAATLLANHSLRELDLSNNCLGDAGILQLVESVRQPGCLLEQLVLADIYWSEEMEDRLQALEKDKPSLRVIS | Positive (positive (a hot residue) ΔΔG ≥ 4.184 kJ/mol) | 13.64
1A4Y YA437A (protein, UniProt P13489 2-461, looked up, variant Y437A) Ribonuclease inhibitor: SLDIQSLDIQCEELSDARWAELLPLLQQCQVVRLDDCGLTEARCKDISSALRVNPALAELNLRSNELGDVGVHCVLQGLQTPSCKIQKLSLQNCCLTGAGCGVLSSTLRTLPTLQELHLSDNLLGDAGLQLLCEGLLDPQCRLEKLQLEYCSLSAASCEPLASVLRAKPDFKELTVSNNDINEAGVRVLCQGLKDSPCQLEALKLESCGVTSDNCRDLCGIVASKASLRELALGSNKLGDVGMAELCPGLLHPSSRLRTLWIWECGITAKGCGDLCRVLRAKESLKELSLAGNELGDEGARLLCETLLEPGCQLESLWVKSCSFTAACCSHFSSVLAQNRFLLELQISNNRLEDAGVRELCQGLGQPGSVLRVLWLADCDVSDSSCSSLAATLLANHSLRELDLSNNCLGDAGILQLVESVRQPGCLLEQLVLYDIAWSEEMEDRLQALEKDKPSLRVIS | Neutral (neutral (little effect) 4.184 kJ/mol < ΔΔG > −4.184 kJ/mol) | 3.43
1A4Y IA459A (protein, UniProt P13489 2-461, looked up, variant I459A) Ribonuclease inhibitor: SLDIQSLDIQCEELSDARWAELLPLLQQCQVVRLDDCGLTEARCKDISSALRVNPALAELNLRSNELGDVGVHCVLQGLQTPSCKIQKLSLQNCCLTGAGCGVLSSTLRTLPTLQELHLSDNLLGDAGLQLLCEGLLDPQCRLEKLQLEYCSLSAASCEPLASVLRAKPDFKELTVSNNDINEAGVRVLCQGLKDSPCQLEALKLESCGVTSDNCRDLCGIVASKASLRELALGSNKLGDVGMAELCPGLLHPSSRLRTLWIWECGITAKGCGDLCRVLRAKESLKELSLAGNELGDEGARLLCETLLEPGCQLESLWVKSCSFTAACCSHFSSVLAQNRFLLELQISNNRLEDAGVRELCQGLGQPGSVLRVLWLADCDVSDSSCSSLAATLLANHSLRELDLSNNCLGDAGILQLVESVRQPGCLLEQLVLYDIYWSEEMEDRLQALEKDKPSLRVAS | Neutral (neutral (little effect) 4.184 kJ/mol < ΔΔG > −4.184 kJ/mol) | 2.80
1AHW YC157A (protein, UniProt P13726 33-251, looked up, variant Y157A, extracellular domain) extracellular domain: SGTTNTVAAYNLTWKSTNFKTILEWEPKPVNQVYTVQISTKSGDWKSKCFYTTDTECDLTDEIVKDVKQTYLARVFSYPAGNVESTGSAGEPLYENSPEFTPYLETNLGQPTIQSFEQVGTKVNVTVEDERTLVRRNNTFLSLRDVFGKDLIYTLYAWKSSSSGKKTAKTNTNEFLIDVDKGENYCFSVQAVIPSRTVNRKSTDSPVECMGQEKGEFRE | Negative (negative (affinity enhancing) ΔΔG ≤ −4.184 kJ/mol) | -7.91
1DAN VT36A (protein, UniProt P13726 33-251, looked up, variant V36A, extracellular domain) extracellular domain: SGTTNTVAAYNLTWKSTNFKTILEWEPKPVNQVYTAQISTKSGDWKSKCFYTTDTECDLTDEIVKDVKQTYLARVFSYPAGNVESTGSAGEPLYENSPEFTPYLETNLGQPTIQSFEQVGTKVNVTVEDERTLVRRNNTFLSLRDVFGKDLIYTLYYWKSSSSGKKTAKTNTNEFLIDVDKGENYCFSVQAVIPSRTVNRKSTDSPVECMGQEKGEFRE | Neutral (neutral (little effect) 4.184 kJ/mol < ΔΔG > −4.184 kJ/mol) | -0.54
1AHW VC198A (protein, UniProt P13726 33-251, looked up, variant V198A, extracellular domain) extracellular domain: SGTTNTVAAYNLTWKSTNFKTILEWEPKPVNQVYTVQISTKSGDWKSKCFYTTDTECDLTDEIVKDVKQTYLARVFSYPAGNVESTGSAGEPLYENSPEFTPYLETNLGQPTIQSFEQVGTKVNVTVEDERTLVRRNNTFLSLRDVFGKDLIYTLYYWKSSSSGKKTAKTNTNEFLIDVDKGENYCFSVQAVIPSRTANRKSTDSPVECMGQEKGEFRE | Neutral (neutral (little effect) 4.184 kJ/mol < ΔΔG > −4.184 kJ/mol) | -1.30
1DAN VT33A (protein, UniProt P13726 33-251, looked up, variant V33A, extracellular domain) extracellular domain: SGTTNTVAAYNLTWKSTNFKTILEWEPKPVNQAYTVQISTKSGDWKSKCFYTTDTECDLTDEIVKDVKQTYLARVFSYPAGNVESTGSAGEPLYENSPEFTPYLETNLGQPTIQSFEQVGTKVNVTVEDERTLVRRNNTFLSLRDVFGKDLIYTLYYWKSSSSGKKTAKTNTNEFLIDVDKGENYCFSVQAVIPSRTVNRKSTDSPVECMGQEKGEFRE | Neutral (neutral (little effect) 4.184 kJ/mol < ΔΔG > −4.184 kJ/mol) | -0.79
1DAN WT45A (protein, UniProt P13726 33-251, looked up, variant W45A, extracellular domain) extracellular domain: SGTTNTVAAYNLTWKSTNFKTILEWEPKPVNQVYTVQISTKSGDAKSKCFYTTDTECDLTDEIVKDVKQTYLARVFSYPAGNVESTGSAGEPLYENSPEFTPYLETNLGQPTIQSFEQVGTKVNVTVEDERTLVRRNNTFLSLRDVFGKDLIYTLYYWKSSSSGKKTAKTNTNEFLIDVDKGENYCFSVQAVIPSRTVNRKSTDSPVECMGQEKGEFRE | Positive (positive (a hot residue) ΔΔG ≥ 4.184 kJ/mol) | 6.53
1AHW LC176A (protein, UniProt P13726 33-251, looked up, variant L176A, extracellular domain) extracellular domain: SGTTNTVAAYNLTWKSTNFKTILEWEPKPVNQVYTVQISTKSGDWKSKCFYTTDTECDLTDEIVKDVKQTYLARVFSYPAGNVESTGSAGEPLYENSPEFTPYLETNLGQPTIQSFEQVGTKVNVTVEDERTLVRRNNTFLSLRDVFGKDLIYTLYYWKSSSSGKKTAKTNTNEFAIDVDKGENYCFSVQAVIPSRTVNRKSTDSPVECMGQEKGEFRE | Neutral (neutral (little effect) 4.184 kJ/mol < ΔΔG > −4.184 kJ/mol) | 4.14
1DAN IT22A (protein, UniProt P13726 33-251, looked up, variant I22A, extracellular domain) extracellular domain: SGTTNTVAAYNLTWKSTNFKTALEWEPKPVNQVYTVQISTKSGDWKSKCFYTTDTECDLTDEIVKDVKQTYLARVFSYPAGNVESTGSAGEPLYENSPEFTPYLETNLGQPTIQSFEQVGTKVNVTVEDERTLVRRNNTFLSLRDVFGKDLIYTLYYWKSSSSGKKTAKTNTNEFLIDVDKGENYCFSVQAVIPSRTVNRKSTDSPVECMGQEKGEFRE | Neutral (neutral (little effect) 4.184 kJ/mol < ΔΔG > −4.184 kJ/mol) | 2.72
